Values belong to the binder of their own block, whether it stands above or below them.
Experiments:
[1] = molecular target: T1, Gli2-ZF (418-604aa; zinc finger domain of Gli2) (human, UniProt P10070 418-604); assay: BLI; GST-Kif7-SCC on sensor, Gli2-ZF as analyte, Hill fit
T1 construct: Expressed with an HRV-cleavable N-terminal 6xHis tag, cleaved 'if needed'; also called Gli-ZF
T1 sequence (looked up): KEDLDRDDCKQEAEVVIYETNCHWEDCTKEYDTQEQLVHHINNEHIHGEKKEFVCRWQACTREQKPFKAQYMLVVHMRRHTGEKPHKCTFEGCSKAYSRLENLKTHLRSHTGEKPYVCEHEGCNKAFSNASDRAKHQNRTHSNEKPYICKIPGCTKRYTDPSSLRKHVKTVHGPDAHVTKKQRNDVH

Gli2-ZF-SNAP [2] = molecular target: T2, Gli2-ZF-SNAP (human, UniProt P10070 418-604, Alexa 647 dye on the SNAP tag in the TIRF assays); assay: TIRF microscopy; 100 nM Kif7-DM-GFP and 100 nM Alexa-647 labeled Gli2-ZF-SNAP on GMPCPP microtubules
T2 construct: Labeled with Alexa 647 for TIRF microscopy; used unlabeled (as far as told) for cryo-EM; also called Gli2-ZF-SNAP-Alexa 647; Gli2-ZF-Alexa 647; not shown: C-terminal SNAP tag
T2 sequence (looked up): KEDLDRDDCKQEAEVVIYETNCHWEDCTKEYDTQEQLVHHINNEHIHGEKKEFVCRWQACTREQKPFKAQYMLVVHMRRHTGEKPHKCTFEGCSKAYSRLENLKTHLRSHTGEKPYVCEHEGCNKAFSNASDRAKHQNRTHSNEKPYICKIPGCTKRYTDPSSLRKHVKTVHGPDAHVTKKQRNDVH
Method: Rhodamine/HiLyte 647 labeled GMPCPP-stabilized microtubules (grey) were immobilized on a PEG-treated glass coverslip (yellow) via neutravidin-biotin linkages (blue & brown respectively). Kif7-DM-GFP (green), Gli2-ZF-SNAP-Alexa 647 (pink) and 1 mM ATP were subsequently added to examine binding of both proteins on microtubules. All proteins for TIRF microscopy assay were purified to >95% purity (FIGS. 11A & 11B). See also FIGS. 11C-11D.
(§1) To examine whether the Kif7-Gli interaction described above is sufficient for recruiting Gli to microtubules, we reconstituted Gli and Kif7 on microtubules and examined their activity using an in vitro TIRF microscopy assay. Briefly, fluorescently labeled (Rhodamine/HiLyte-647) and biotinylated microtubule seeds, polymerized with the non-hydrolyzable GTP analog GMPCPP, were immobilized on a glass coverslip through neutravidin-biotin linkages (FIG. 4A). GMPCPP was chosen as it mimics the GTP-form of tubulin present at microtubule ends (Jiang et al., Developmental cell, 49, 711-730. e8 2019). […] A Gli2 control was used to measure non-specific binding of Gli2-ZF to microtubules. Single molecule photobleaching of purified Kif7-DM confirmed that it is a dimer (FIGS. 11A-D).

Gli2-ZF-SNAP [3] = molecular target: T2, Gli2-ZF-SNAP; assay: TIRF microscopy; 100 nM Gli2-ZF-SNAP-Alexa647 with 100 nM kinesin on microtubules
Excerpt: as §1, with “Briefly,” for “To examine whether the Kif7-Gli interaction described above is sufficient for recruiting Gli to microtubules, we reconstituted Gli and Kif7 on microtubules and examined their activity using an in vitro TIRF microscopy assay. Briefly,”
To address which of the two Gli-interaction sites of Kif7 plays a role in modulating Kif7 microtubule binding, we generated two chimeric proteins where we swapped either the motor and neck-linker (M) or the coiled-coil (CC) domains of Kif7 and Kif27 (Kif7M-Kif27CC and Kif27M-Kif7CC) (FIG. 5E). […] The binding affinity for each of the two Gli interaction sites on Kif7-DM could be determined using BLI (FIG. 12H). We compared the two chimeras to Kif7-DM in TIRF microscopy-based microtubule binding assay. […] Next, we compared how the microtubule binding of the chimeras were regulated by Gli with respect to Kif7-DM.

GST-Kif7-CC (460-600aa) = molecular target: T3, GST-Kif7-CC (460-600aa) (human, UniProt Q2M1P5 460-600); assay: BLI association step, GST-Kif7-CC on the sensor, soluble truncation at 125 nM [panel C]
T3 construct: held on the BLI sensor through the GST tag; also called Kif7 coiled-coil domain; coiled-coil dimerization domain fragment of Kif7; not shown: N-terminal GST tag (HRV protease cleavable, modified pGEX vector)
T3 sequence: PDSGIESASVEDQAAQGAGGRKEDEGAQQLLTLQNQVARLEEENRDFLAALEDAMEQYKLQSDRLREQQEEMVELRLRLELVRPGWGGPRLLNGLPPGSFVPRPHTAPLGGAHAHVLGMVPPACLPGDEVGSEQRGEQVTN
Method: Equilibrium dissociation constants Kd (shown in parenthesis) were determined by fitting complete binding curves to Hill equation (See FIG. 10C). See also FIGS. 10A, 10B & 10C. Data is representative trace of a minimum of three repeats.
BLI experiments were performed in an Octet Red 96 instrument (ForteBio). To quantify Kif7-Gli2 binding, Experiments were performed in an assay buffer containing 40 mM TRIS pH7.3, 40 mM KCl, 40 μM ATP 1 mM MgCl₂, 0.12% tween and 0.5 mM TCEP. In the simplest assay, dimeric GST-Kif7-CC at a concentration of 120 nM is immobilized on an anti-GST biosensor chip. Unbound Kif7 is washed away with buffer, and the chips are then dipped into buffer with a range of Gli2-ZF concentrations from 0-1 μM to allow for association of the two proteins. After 300 seconds, they are then moved back into a well with just buffer to allow dissociation for 400 seconds. The equilibrium response of each sensor from three independent repeats at each Gli2 concentration were normalized and plotted against Gli2 concentration and fitted with a Hill function to obtain a Kₜ. […] The assays were also performed with HIS-tagged Kif7-DM and the Kif7-Kif27 chimeric proteins, requiring the use of an anti-penta-HIS biosensor chip, and referencing sensors to account for non-specific binding of Gli2 to the HIS sensor. A flipped assay, using HIS-tagged Gli2 on the sensor and a range of Kif7 concentrations in buffer, was also conducted.

GST-Kif7-CC-GFP = molecular target: T4, GST-Kif7-CC-GFP (human, UniProt Q2M1P5 460-600); assay: SDS-PAGE and in-gel GFP fluorescence intensity of the size exclusion fraction holding the Kif7-CC-GFP:Gli2-ZF-GFP complex; confirmed by quantitative anti-GFP western blot
T4 construct: also called GST-tagged Kif7-CC-GFP; not shown: N-terminal GST tag; GFP tag, C-terminal by the name
T4 sequence: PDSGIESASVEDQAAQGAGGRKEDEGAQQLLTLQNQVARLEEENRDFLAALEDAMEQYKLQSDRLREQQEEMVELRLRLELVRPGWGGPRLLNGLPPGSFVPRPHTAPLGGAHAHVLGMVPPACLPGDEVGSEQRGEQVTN
Method: To determine the stoichiometry of the complex (whether one Kif7-CC dimer bind one or two molecules of monomeric Gli2-ZF), we used fluorescence intensity analyses. […] The complex was analyzed by two methods. […] Second, quantitative western blot with fluorescently labeled anti-GFP antibody and densitometric analysis independently confirmed the stoichiometry of the complex (FIG. 8F).
The Kif7-CC and Kif7-DM proteins were not amenable to dynamic light scattering analysis and so in order to determine the stoichiometry of the Kif7-Gli2 complexes, we purified GFP-tagged constructs of Kif7-DM, Kif7-CC, and Gli2-ZF. […] After incubation, 200 μL of this mix was injected into a Superdex 200 10/300 GL column. Fractions that contained complexed protein were determined by elution volume shift in the gel filtration chromatogram. Complex containing fractions were boiled and run in SDS-PAGE and quantified in two ways: (1) Scan of an unstained SDS-PAGE gel at 488 nm, and (2) Scan of a Western blot using a directly labeled […] anti-GFP antibody (Santa Cruz). Both methods were quantified using an Amersham™ Typhoon Scanner and ImageJ for intensity analysis.

B1: GST-Kif7-SCC (481-543aa) (other)
chain: KEDEGAQQLLTLQNQVARLEEENRDFLAALEDAMEQYKLQSDRLREQQEEMVELRLRLELVRP
notes: The limits of the results section are used; also called shorter coiled-coil segment of Kif7-CC; not shown: GST tag, by the name GST-Kif7-SCC
Kd [1]: 69 nM

B4: Gli2-ZF-GFP (other, human, UniProt P10070 418-604, looked up)
chain: KEDLDRDDCKQEAEVVIYETNCHWEDCTKEYDTQEQLVHHINNEHIHGEKKEFVCRWQACTREQKPFKAQYMLVVHMRRHTGEKPHKCTFEGCSKAYSRLENLKTHLRSHTGEKPYVCEHEGCNKAFSNASDRAKHQNRTHSNEKPYICKIPGCTKRYTDPSSLRKHVKTVHGPDAHVTKKQRNDVH
notes: HRV-cleavable N-terminal 6xHis tag in the vector; not shown: C-terminal GFP tag
stoichiometry of interaction (GST-Kif7-CC-GFP): 0.5 Gli2-ZF molecules per Kif7-CC chain (1:2, one Gli2-ZF monomer per Kif7-CC dimer)

Now from value to binder:

fold increase over background of Gli2 intensity on microtubules (Gli2-ZF-SNAP [2]): 3 fold | fold Gli2-ZF Alexa-647 intensity on microtubules over Gli2 alone (Gli2-ZF-SNAP [3]): ~9 fold
B2: Kif7-DM-GFP (1-543aa) (other)
chain: MGLEAQRLPGAEEAPVRVALRVRPLLPKELLHGHQSCLQVEPGLGRVTLGRDRHFGFHVVLAEDAGQEAVYQACVQPLLEAFFEGFNATVFAYGQTGSGKTYTMGEASVASLLEDEQGIVPRAMAEAFKLIDENDLLDCLVHVSYLEVYKEEFRDLLEVGTASRDIQLREDERGNVVLCGVKEVDVEGLDEVLSLLEMGNAARHTGATHLNHLSSRSHTVFTVTLEQRGRAPSRLPRPAPGQLLVSKFHFVDLAGSERVLKTGSTGERLKESIQINSSLLALGNVISALGDPQRRGSHIPYRDSKITRILKDSLGGNAKTVMIACVSPSSSDFDETLNTLNYASRAQNIRNRATVNWRPEAERPPEETASGARGPPRHRSETRIIHRGRRAPGPATASAAAAMRLGAECARYRACTDAAYSLLRELQAEPGLPGAAARKVRDWLCAVEGERSALSSASGPDSGIESASVEDQAAQGAGGRKEDEGAQQLLTLQNQVARLEEENRDFLAALEDAMEQYKLQSDRLREQQEEMVELRLRLELVRP
notes: Dimer; Used in TIRF, size exclusion and BLI (HIS-tagged, anti-penta-HIS sensor); also called GFP-tagged recombinant dimeric Kif7 protein; GFP-tagged Kif7-DM; not shown: TEV-cleavable N-terminal 6xHis tag and SUMOstar tag; His tag on in the BLI assay, state in other a; GFP tag, C-terminal by the name

binding result (GST-Kif7-CC (460-600aa)): no binding (tested: 125 nM)
B3: ZF3-5 (500-604) (other, human, UniProt P10070 500-604, looked up)
Gli2 zinc-finger truncation: EKPHKCTFEGCSKAYSRLENLKTHLRSHTGEKPYVCEHEGCNKAFSNASDRAKHQNRTHSNEKPYICKIPGCTKRYTDPSSLRKHVKTVHGPDAHVTKKQRNDVH
notes: residues 500-604; One of the three truncations of the group m9; also called Gli2-ZF truncation ZF3-5

Source: patent US20230374088A1 (GENERAL HOSPITAL, published 2023)
